Where only a bound is given, the exact number is not on record here.

Consider three substances from publication PMC11320570.

Common to all, as to test: ELISA
In general terms: An ELISA detects its analyte on a solid surface through an enzyme-linked reagent.

One assay has as its target 3H5 mouse antibody.
Assay [1] addresses 513 engineered and humanized antibody.
The target in the next assay is 2H12 mouse antibody.

With “DENV-2 EDIII wild-type Fc-fusion antigen S298N; S300T; V309N; E311T; H317N”, the Kd is 0.78 nM with 3H5 mouse antibody and more than 0.265 nM in assay [1].

In the case of “DENV-2 EDIII wild-type Fc-fusion antigen S298N; S300T; H317N”, the Kd with 3H5 mouse antibody came to 0.82 nM; in assay [1] it was 0.081 nM.

Turning to “DENV-2 EDIII wild-type Fc-fusion antigen S298N; S300T”, the Kd in the assay with 3H5 mouse antibody was determined as 0.82 nM; in assay [1], 0.075 nM; with 2H12 mouse antibody, 0.71 nM.

One may read the Kd as the concentration at which binding is half-saturated. A low value points to higher affinity.
